From US20180155451A1 (published 2018)

T1: FcγRIIa R (FcγRIIa, allotype R: Arg at position 131) extracellular domain with C-terminal His tag (human, UniProt P12318 34-217)
T1 construct: extracellular domain; also called FcgRIIa R; 2aR; not shown: His tag at the C terminus
T1 sequence (looked up): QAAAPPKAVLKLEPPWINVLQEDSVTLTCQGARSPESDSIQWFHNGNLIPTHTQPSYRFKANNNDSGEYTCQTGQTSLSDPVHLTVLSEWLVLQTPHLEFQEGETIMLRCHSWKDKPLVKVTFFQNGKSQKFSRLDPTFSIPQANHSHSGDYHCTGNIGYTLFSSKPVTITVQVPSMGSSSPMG

T2: FcγRIIb extracellular domain with C-terminal His tag (human, UniProt P31994 43-217)
T2 construct: extracellular domain; also called FcgRIIb; 2b; not shown: His tag at the C terminus
T2 sequence (looked up): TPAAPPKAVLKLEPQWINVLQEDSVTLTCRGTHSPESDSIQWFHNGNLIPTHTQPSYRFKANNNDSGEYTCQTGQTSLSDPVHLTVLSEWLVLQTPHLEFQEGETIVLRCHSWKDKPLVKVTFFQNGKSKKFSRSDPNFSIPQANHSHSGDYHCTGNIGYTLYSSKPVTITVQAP


Legend:
[1] = target: T1, FcγRIIa R (FcγRIIa, allotype R: Arg at …); test: SPR Biacore, antibody captured, FcgR analyte; vs HeCon Ab GpH7-A5/GpH7-B3/GpL16-k0 = 100
Experimental: (§1) The heterodimerized antibodies He Abs in which one of the H chains was introduced with an alteration were assayed for their binding activities to each activating FcγR and inhibitory FcγR according to the method described in Example 4. […] The activating FcγRs in FIGS. 26, 27, 28, and 29 are FcγRIa, FcγRIIa (R), FcγRIIa (H), and FcγRIIIa, respectively.
(§2) Analysis of interaction between objective antibody and the FcγR was carried out using Biacore T100 (GE Healthcare). HBS-EP+ (GE Healthcare) was used as the running buffer, and the measurement temperature was set to 25° C. Chips produced by immobilizing the antigen peptide by the amine coupling method to a Series S Sencor Chip CM5 (GE Healthcare), or alternatively, chips produced by allowing preliminarily biotinylated antigen peptides to interact with and immobilize onto a Series S Sensor Chip SA (certified) (GE Healthcare) were used. Antibodies of interest were captured onto an antigen peptide-immobilized chip, and allowed to interact to each FcγR diluted with running buffer. To regenerate and repeatedly use the chip, the antibodies captured on the chip were washed off by reacting 10 mM glycine-HCl, pH 1.5.

[2] = target: T2, FcγRIIb extracellular domain with …; test: as above
Experimental: as §1, §2

He/Con_2aR [1] [control = 100] | He/Con_2b [2] [control = 100] | Binder
105 | 99.2 | GpH7-A5/GpH7-B3 variant P331_18N/GpL16-k0 (antibody, human IgG1, kappa, He Ab: alteration in the GpH7-B3 H chain only; also called He Ab) heavy 1: not shown heavy 2: not shown light: DIVMTQSPLSLPVTPGEPASISCQASESLVHSNRNTYLHWYLQKPGQSPQLLIYKVSNRFSGVPDRFSGSGSGTDFTLKISRVEAEDVGVYYCSQNTHVPPTFGQGTKVEIERTVAAPSVFIFPPSDEQLKSGTASVVCLLNNFYPREAKVQWKVDNALQSGNSQESVTEQDSKDSTYSLSSTLTLSKADYEKHKVYACEVTHQGLSSPVTKSFNRGEC
106 | 98.9 | GpH7-A5/GpH7-B3 variant Y296_09D/GpL16-k0 (antibody, human IgG1, kappa, He Ab: alteration in the GpH7-B3 H chain only; also called He Ab) heavy 1: not shown heavy 2: not shown light: DIVMTQSPLSLPVTPGEPASISCQASESLVHSNRNTYLHWYLQKPGQSPQLLIYKVSNRFSGVPDRFSGSGSGTDFTLKISRVEAEDVGVYYCSQNTHVPPTFGQGTKVEIERTVAAPSVFIFPPSDEQLKSGTASVVCLLNNFYPREAKVQWKVDNALQSGNSQESVTEQDSKDSTYSLSSTLTLSKADYEKHKVYACEVTHQGLSSPVTKSFNRGEC
109 | 99.2 | GpH7-A5/GpH7-B3 variant Y296_04F/GpL16-k0 (antibody, human IgG1, kappa, He Ab: alteration in the GpH7-B3 H chain only; also called He Ab) heavy 1: not shown heavy 2: not shown light: DIVMTQSPLSLPVTPGEPASISCQASESLVHSNRNTYLHWYLQKPGQSPQLLIYKVSNRFSGVPDRFSGSGSGTDFTLKISRVEAEDVGVYYCSQNTHVPPTFGQGTKVEIERTVAAPSVFIFPPSDEQLKSGTASVVCLLNNFYPREAKVQWKVDNALQSGNSQESVTEQDSKDSTYSLSSTLTLSKADYEKHKVYACEVTHQGLSSPVTKSFNRGEC
103 | 97.3 | GpH7-A5/GpH7-B3 variant S239_14T/GpL16-k0 (antibody, human IgG1, kappa, He Ab: alteration in the GpH7-B3 H chain only; also called He Ab) heavy 1: not shown heavy 2: not shown light: DIVMTQSPLSLPVTPGEPASISCQASESLVHSNRNTYLHWYLQKPGQSPQLLIYKVSNRFSGVPDRFSGSGSGTDFTLKISRVEAEDVGVYYCSQNTHVPPTFGQGTKVEIERTVAAPSVFIFPPSDEQLKSGTASVVCLLNNFYPREAKVQWKVDNALQSGNSQESVTEQDSKDSTYSLSSTLTLSKADYEKHKVYACEVTHQGLSSPVTKSFNRGEC
104 | 89.1 | GpH7-A5/GpH7-B3 variant S324_04F/GpL16-k0 (antibody, human IgG1, kappa, He Ab: alteration in the GpH7-B3 H chain only; also called He Ab) heavy 1: not shown heavy 2: not shown light: DIVMTQSPLSLPVTPGEPASISCQASESLVHSNRNTYLHWYLQKPGQSPQLLIYKVSNRFSGVPDRFSGSGSGTDFTLKISRVEAEDVGVYYCSQNTHVPPTFGQGTKVEIERTVAAPSVFIFPPSDEQLKSGTASVVCLLNNFYPREAKVQWKVDNALQSGNSQESVTEQDSKDSTYSLSSTLTLSKADYEKHKVYACEVTHQGLSSPVTKSFNRGEC
101 | 87.8 | GpH7-A5/GpH7-B3 variant Y296_06M/GpL16-k0 (antibody, human IgG1, kappa, He Ab: alteration in the GpH7-B3 H chain only; also called He Ab) heavy 1: not shown heavy 2: not shown light: DIVMTQSPLSLPVTPGEPASISCQASESLVHSNRNTYLHWYLQKPGQSPQLLIYKVSNRFSGVPDRFSGSGSGTDFTLKISRVEAEDVGVYYCSQNTHVPPTFGQGTKVEIERTVAAPSVFIFPPSDEQLKSGTASVVCLLNNFYPREAKVQWKVDNALQSGNSQESVTEQDSKDSTYSLSSTLTLSKADYEKHKVYACEVTHQGLSSPVTKSFNRGEC
101 | 84.3 | GpH7-A5/GpH7-B3 variant Y296_07I/GpL16-k0 (antibody, human IgG1, kappa, He Ab: alteration in the GpH7-B3 H chain only; also called He Ab) heavy 1: not shown heavy 2: not shown light: DIVMTQSPLSLPVTPGEPASISCQASESLVHSNRNTYLHWYLQKPGQSPQLLIYKVSNRFSGVPDRFSGSGSGTDFTLKISRVEAEDVGVYYCSQNTHVPPTFGQGTKVEIERTVAAPSVFIFPPSDEQLKSGTASVVCLLNNFYPREAKVQWKVDNALQSGNSQESVTEQDSKDSTYSLSSTLTLSKADYEKHKVYACEVTHQGLSSPVTKSFNRGEC
102 | 94.8 | GpH7-A5/GpH7-B3 variant Q295_10E/GpL16-k0 (antibody, human IgG1, kappa, He Ab: alteration in the GpH7-B3 H chain only; also called He Ab) heavy 1: not shown heavy 2: not shown light: DIVMTQSPLSLPVTPGEPASISCQASESLVHSNRNTYLHWYLQKPGQSPQLLIYKVSNRFSGVPDRFSGSGSGTDFTLKISRVEAEDVGVYYCSQNTHVPPTFGQGTKVEIERTVAAPSVFIFPPSDEQLKSGTASVVCLLNNFYPREAKVQWKVDNALQSGNSQESVTEQDSKDSTYSLSSTLTLSKADYEKHKVYACEVTHQGLSSPVTKSFNRGEC
102 | 90.4 | GpH7-A5/GpH7-B3 variant Q295_06M/GpL16-k0 (antibody, human IgG1, kappa, He Ab: alteration in the GpH7-B3 H chain only; also called He Ab) heavy 1: not shown heavy 2: not shown light: DIVMTQSPLSLPVTPGEPASISCQASESLVHSNRNTYLHWYLQKPGQSPQLLIYKVSNRFSGVPDRFSGSGSGTDFTLKISRVEAEDVGVYYCSQNTHVPPTFGQGTKVEIERTVAAPSVFIFPPSDEQLKSGTASVVCLLNNFYPREAKVQWKVDNALQSGNSQESVTEQDSKDSTYSLSSTLTLSKADYEKHKVYACEVTHQGLSSPVTKSFNRGEC

The next lines start with the binder.

Binder | He/Con_2aR [1] [control = 100] | He/Con_2b [2] [control = 100]
GpH7-A5/GpH7-B3 variant N325_15Y/GpL16-k0 (antibody, human IgG1, kappa, He Ab: alteration in the GpH7-B3 H chain only; also called He Ab) heavy 1: not shown heavy 2: not shown light: DIVMTQSPLSLPVTPGEPASISCQASESLVHSNRNTYLHWYLQKPGQSPQLLIYKVSNRFSGVPDRFSGSGSGTDFTLKISRVEAEDVGVYYCSQNTHVPPTFGQGTKVEIERTVAAPSVFIFPPSDEQLKSGTASVVCLLNNFYPREAKVQWKVDNALQSGNSQESVTEQDSKDSTYSLSSTLTLSKADYEKHKVYACEVTHQGLSSPVTKSFNRGEC | 101 | 99.5
GpH7-A5/GpH7-B3 variant P331_09D/GpL16-k0 (antibody, human IgG1, kappa, He Ab: alteration in the GpH7-B3 H chain only; also called He Ab) heavy 1: not shown heavy 2: not shown light: DIVMTQSPLSLPVTPGEPASISCQASESLVHSNRNTYLHWYLQKPGQSPQLLIYKVSNRFSGVPDRFSGSGSGTDFTLKISRVEAEDVGVYYCSQNTHVPPTFGQGTKVEIERTVAAPSVFIFPPSDEQLKSGTASVVCLLNNFYPREAKVQWKVDNALQSGNSQESVTEQDSKDSTYSLSSTLTLSKADYEKHKVYACEVTHQGLSSPVTKSFNRGEC | 102 | 94.3
GpH7-A5/GpH7-B3 variant P331_14T/GpL16-k0 (antibody, human IgG1, kappa, He Ab: alteration in the GpH7-B3 H chain only; also called He Ab) heavy 1: not shown heavy 2: not shown light: DIVMTQSPLSLPVTPGEPASISCQASESLVHSNRNTYLHWYLQKPGQSPQLLIYKVSNRFSGVPDRFSGSGSGTDFTLKISRVEAEDVGVYYCSQNTHVPPTFGQGTKVEIERTVAAPSVFIFPPSDEQLKSGTASVVCLLNNFYPREAKVQWKVDNALQSGNSQESVTEQDSKDSTYSLSSTLTLSKADYEKHKVYACEVTHQGLSSPVTKSFNRGEC | 104 | 99.8
GpH7-A5/GpH7-B3 variant P331_13S/GpL16-k0 (antibody, human IgG1, kappa, He Ab: alteration in the GpH7-B3 H chain only; also called He Ab) heavy 1: not shown heavy 2: not shown light: DIVMTQSPLSLPVTPGEPASISCQASESLVHSNRNTYLHWYLQKPGQSPQLLIYKVSNRFSGVPDRFSGSGSGTDFTLKISRVEAEDVGVYYCSQNTHVPPTFGQGTKVEIERTVAAPSVFIFPPSDEQLKSGTASVVCLLNNFYPREAKVQWKVDNALQSGNSQESVTEQDSKDSTYSLSSTLTLSKADYEKHKVYACEVTHQGLSSPVTKSFNRGEC | 105 | 96.8
GpH7-A5/GpH7-B3 variant P331_08L/GpL16-k0 (antibody, human IgG1, kappa, He Ab: alteration in the GpH7-B3 H chain only; also called He Ab) heavy 1: not shown heavy 2: not shown light: DIVMTQSPLSLPVTPGEPASISCQASESLVHSNRNTYLHWYLQKPGQSPQLLIYKVSNRFSGVPDRFSGSGSGTDFTLKISRVEAEDVGVYYCSQNTHVPPTFGQGTKVEIERTVAAPSVFIFPPSDEQLKSGTASVVCLLNNFYPREAKVQWKVDNALQSGNSQESVTEQDSKDSTYSLSSTLTLSKADYEKHKVYACEVTHQGLSSPVTKSFNRGEC | 102 | 95.7
GpH7-A5/GpH7-B3 variant P331_02A/GpL16-k0 (antibody, human IgG1, kappa, He Ab: alteration in the GpH7-B3 H chain only; also called He Ab) heavy 1: not shown heavy 2: not shown light: DIVMTQSPLSLPVTPGEPASISCQASESLVHSNRNTYLHWYLQKPGQSPQLLIYKVSNRFSGVPDRFSGSGSGTDFTLKISRVEAEDVGVYYCSQNTHVPPTFGQGTKVEIERTVAAPSVFIFPPSDEQLKSGTASVVCLLNNFYPREAKVQWKVDNALQSGNSQESVTEQDSKDSTYSLSSTLTLSKADYEKHKVYACEVTHQGLSSPVTKSFNRGEC | 106 | 99.5
